From publication doi:10.1101/2024.07.16.603632

Target: fluorescently labeled isolated Grb2 C-SH3 domain
Assay: fluorescence polarisation; fluorescence anisotropy; PTP1B titrated into a solution of N-terminally fluorophore-labelled Grb2 construct; N = 2–4 independent titrations

Binder	Kd [µM]
PTP1B^1−321 (wild-type protein tyrosine phosphatase 1B, residues 1-321) (domain or fragment) MEMEKEFEQIDKSGSWAAIYQDIRHEASDFPCRVAKLPKNKNRNRYRDVSPFDHSRIKLHQEDNDYINASLIKMEEAQRSYILTQGPLPNTCGHFWEMVWEQKSRGVVMLNRVMEKGSLKCAQYWPQKEEKEMIFEDTNLKLTLISEDIKSYYTVRQLELENLTTQETREILHFHYTTWPDFGVPESPASFLNFLFKVRESGSLSPEHGPVVVHCSAGIGRSGTFCLADTCLLLMDKRKDPSSVDIKKVLLEMRKFRMGLIQTADQLRFSYLAVIEGAKFIMGDSSVQDQWKELSHEDLEPPPEHIPPPPRPPKRILEPHN	62
PTP1B^1−401 (domain or fragment) MEMEKEFEQIDKSGSWAAIYQDIRHEASDFPCRVAKLPKNKNRNRYRDVSPFDHSRIKLHQEDNDYINASLIKMEEAQRSYILTQGPLPNTCGHFWEMVWEQKSRGVVMLNRVMEKGSLKCAQYWPQKEEKEMIFEDTNLKLTLISEDIKSYYTVRQLELENLTTQETREILHFHYTTWPDFGVPESPASFLNFLFKVRESGSLSPEHGPVVVHCSAGIGRSGTFCLADTCLLLMDKRKDPSSVDIKKVLLEMRKFRMGLIQTADQLRFSYLAVIEGAKFIMGDSSVQDQWKELSHEDLEPPPEHIPPPPRPPKRILEPHNGKCREFFPNHQWVKEETQEDKDCPIKEEKGSPLNAAPYGIESMSQDTEVRSRVVGGSLRGAQAASPAKGEPSLPEKDEDH	82.4
